Assay [1] deals with LILRB2 antigen of the ELISA of Table 5 (format not specified) (UniProt Q8N423 22-460, limits assumed). Put plainly: ELISA, antibody titration. For orientation: In an ELISA, binding on a coated surface is turned into a signal by an enzyme label.
Assay [2] concerns the target T1, human LILRB1 expressed on 293T cells (human, UniProt Q8NHL6 24-650).
T1 construct: whole, on cells
Put plainly: flow cytometry on 293T transfectants, MFI. The procedure:
(§1) The cells were then immobilized with glutaraldehyde in the presence of 5% defatted milk at room temperature for 2 hours. An anti-LILRB2 antibody (5 μg/ml) was added to each well and incubated at room temperature for 1 hours. An Alex Flour®-labelled goat anti-mouse secondary antibody (1:2,000 dilution) was then added into each well and incubated at room temperature for 30′. The cells were washed twice with PBS after the staining. Fluorescence intensities (MFI) were measured.

Assay [3] has as its target T2, human LILRB3 expressed on 293T cells (human, UniProt O75022 24-631).
T2 construct: whole, on cells
Put plainly: flow cytometry on 293T transfectants, MFI. The procedure: as §1

In assay [4] the target is T3, human LILRB2 expressed on cells (293T-LILRB2, CHO-K1-LILRB2) (human, UniProt Q8N423 22-597).
T3 construct: whole, on cells; the cell line is named under assay; also called HEK293T-LILRB2
T3 sequence (Q8N423 22-597): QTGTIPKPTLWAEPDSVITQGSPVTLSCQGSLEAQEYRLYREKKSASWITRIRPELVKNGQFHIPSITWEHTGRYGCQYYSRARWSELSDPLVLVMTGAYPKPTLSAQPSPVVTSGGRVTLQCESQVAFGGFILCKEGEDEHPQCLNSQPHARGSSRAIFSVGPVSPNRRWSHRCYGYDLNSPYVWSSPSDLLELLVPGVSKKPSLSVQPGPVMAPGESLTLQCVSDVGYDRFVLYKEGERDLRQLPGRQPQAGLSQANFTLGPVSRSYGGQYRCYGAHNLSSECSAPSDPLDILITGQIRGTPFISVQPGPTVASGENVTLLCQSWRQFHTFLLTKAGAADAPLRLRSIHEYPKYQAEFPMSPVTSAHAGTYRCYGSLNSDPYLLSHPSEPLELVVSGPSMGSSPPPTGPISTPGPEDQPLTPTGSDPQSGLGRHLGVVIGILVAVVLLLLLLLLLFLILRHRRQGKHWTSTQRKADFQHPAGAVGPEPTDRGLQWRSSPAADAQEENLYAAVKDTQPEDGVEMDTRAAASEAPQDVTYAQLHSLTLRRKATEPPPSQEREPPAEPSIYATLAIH
Description: flow cytometry, 293T-LILRB2 cells. An excerpt: The fluorescent signals were detected by flow cytometry.
For orientation: A flow cytometer gives signals particle by particle.

Assay [5] has as its target T4, recombinant human LILRB2 protein (human, UniProt Q8N423 22-460, limits assumed).
T4 construct: also called recombinant LILRB2 protein
Description: ELISA, coated recombinant human LILRB2. On the set-up: unit not given here. The procedure:
This affinity maturation library was screened against human LILRB2 to identify antibodies having high binding affinity to LILRB2. Briefly, an ELISA plate was coated with 0.1 ug/well recombinant human LILRB2 protein. Serial diluted maturated h#2E1 antibodies were incubated in the LILRB2 coated plate for 2 hrs. The plate was washed and a secondary HRP-labeled anti-human IgG was then added to each well. After being incubated at room temperature for 1 hour, the colorimetric ELISA signals were developed by adding the TMB substrate and reaction was stopped by 1M H3PO4. Table 7 below provides binding activities of exemplary matured antibodies to recombinant LILRB2 protein.

Assay [6] has as its target T3, human LILRB2 expressed on cells …. Description: flow cytometry, His-HLA-A2 tetramer (competitor) bound to 293T-LILRB2 cells, relative to no antibody. On the set-up: concentration or dose not given beside the values. The method, then: Serial diluted h#2E1 antibodies were then added to the mixture and incubated at room temperature for another 45 minutes. […]
The target is the same in assay [7]. Description: flow cytometry, blockade of His-tagged HLA-G tetramer binding to 293T-LILRB2 cells; fit table under the graph. The procedure: Serial diluted humanized LILRB2 antibodies were then added to the mixture and incubated at room temperature for another 45 minutes. The binding of HLA-G/LILRB2 was detected afterwards using a secondary PE-labeled anti-His tag antibody via flow cytometry.

In assay [8] the target is T5, LILRB3-His.
T5 construct: also called His-tagged LILRB3; recombinant LILRB3 protein
Put plainly: ELISA on recombinant His-tagged protein, OD450.

Sequence of LILRB2 antigen of the ELISA of Table 5 (format not specified) (Q8N423 22-460 limits assumed): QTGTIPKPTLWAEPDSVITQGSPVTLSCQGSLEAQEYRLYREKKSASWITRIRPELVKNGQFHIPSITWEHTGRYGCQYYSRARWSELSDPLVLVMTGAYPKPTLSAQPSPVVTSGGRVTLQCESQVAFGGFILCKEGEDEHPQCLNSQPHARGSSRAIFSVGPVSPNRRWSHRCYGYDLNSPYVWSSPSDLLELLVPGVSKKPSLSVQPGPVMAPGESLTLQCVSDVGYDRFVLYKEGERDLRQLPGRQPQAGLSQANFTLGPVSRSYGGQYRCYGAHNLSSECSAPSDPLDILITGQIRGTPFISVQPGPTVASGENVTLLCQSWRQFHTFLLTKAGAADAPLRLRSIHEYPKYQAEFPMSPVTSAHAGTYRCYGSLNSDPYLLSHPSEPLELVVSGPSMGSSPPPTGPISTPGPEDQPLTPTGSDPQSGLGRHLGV
T4 sequence (Q8N423 22-460 limits assumed): as above
T1 sequence (Q8NHL6 24-650): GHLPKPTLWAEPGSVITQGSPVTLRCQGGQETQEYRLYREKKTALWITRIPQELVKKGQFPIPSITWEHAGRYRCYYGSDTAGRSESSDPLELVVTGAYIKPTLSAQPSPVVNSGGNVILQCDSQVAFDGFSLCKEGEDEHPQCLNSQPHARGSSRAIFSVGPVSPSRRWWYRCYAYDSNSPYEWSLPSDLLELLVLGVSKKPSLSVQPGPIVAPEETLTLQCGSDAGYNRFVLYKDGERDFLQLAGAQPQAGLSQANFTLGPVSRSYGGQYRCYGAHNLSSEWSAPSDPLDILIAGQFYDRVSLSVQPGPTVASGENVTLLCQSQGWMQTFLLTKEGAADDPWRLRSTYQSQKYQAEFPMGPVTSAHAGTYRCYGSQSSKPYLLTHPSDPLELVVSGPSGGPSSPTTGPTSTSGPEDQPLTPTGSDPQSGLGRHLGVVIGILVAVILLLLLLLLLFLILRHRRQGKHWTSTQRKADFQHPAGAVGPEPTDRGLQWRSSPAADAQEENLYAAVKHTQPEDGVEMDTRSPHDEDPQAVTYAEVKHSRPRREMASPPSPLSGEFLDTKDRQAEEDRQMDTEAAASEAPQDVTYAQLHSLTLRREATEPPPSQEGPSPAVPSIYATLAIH

B1: Antibody 13C5 (antibody, V domains shown)
VH: QVQLKQSGPGLVQPSQSLSITCTVSGFSLTTFGVHWVRQSPGKGLEWLGVIWRGGSTDYNAAFMSRLSITKDNSKSQVFFKMNSLQADDTAIYYCAKNPYQYGSSHYYAMDYWGQGTSVTVSS
VL: DIVMTQSPSSLSVSAGEKVTMSCKSSQSLLNSGNQKNYLAWYQQKPGQPPKLLIYGASTRESGVPDRFTGSGSGTVFTLTISSVQAEDLAVYYCQNDHILPFTFGSGTKLEIK
notes: Mouse hybridoma mAb purified from ascites
Broadly, the Kd is the concentration at which binding is half-saturated. Turning to B1, the Kd in assay [1] was 0.314 nM. Also, the binding result in assay [2] and in assay [3] was “no binding (tested: 5 µg/ml)” in each case.

B2: Antibody 2F1 (antibody, V domains shown)
VH: EVKLEESGGGLVQPGGSMKLSCAASGFTFSDAWMDWVRQSPKKGLEWVAEIRSKSNNHTTYYAESVKGRFTISRDDSKSSVYLQMNSLRAEDTGIYYCTRDWLTYWGQGTLVTVSA
VL: DIVLTQSPASLAVSLGQRATISCRASKSVSTSGYSYMNWYQQKPGQPPKLLIYLASNLESGVPARFSGSGSGTDFTLNIHPVEEEDAATYYCQHSRELPLTFGAGTKLELK
notes: as for B1
In assay [1], B2 came in with a Kd of 2.18 nM. Also, the binding result in assay [2] and in assay [3] was “no binding (tested: 5 µg/ml)” each time.

B3: Antibody 2E1_FC3 (antibody, V domains shown)
VH: EVQLVESGGGLVQPGGSLRLSCAVSGYSITSGYYWNWIRQAPGKGLEWVAYISYDGNTNYNPSLKNRFTISRDTSKNTFYLQMNSLRAEDTAVYYCAREESTMITTAWFAYWGQGTLVTVSS
VL: DIQMTQSPSSLSASVGDRVTITCRASENIYSNLAWYQQKPGKAPKLLIYGATNLASGVPSRFSGSGSGTDYTLTISSLQPEDFATYYCQHFWDTPYTFGQGTKVEIK
In general, IC50 refers to the concentration needed to halve the response being measured. The molecule B3 had a Bmax in assay [4] of 456000. The Bmax in assay [5] turned out to be 1.29. In addition, the “% no Ab” value in assay [6] was found to be 52.1%. In assay [7], this molecule had an IC50 of 0.122 nM and a Span of 9690 RFU.

B4: Antibody 2E1_FF4 (antibody, V domains shown)
VH: EVQLVESGGGLVQPGGSLRLSCAVSGYSITSGYYWNWIRQAPGKGLEWVAYISYDGNNWYNPSLKNRFTISRDTSKNTFYLQMNSLRAEDTAVYYCAREESTMITTAWFAYWGQGTLVTVSS
VL: DIQMTQSPSSLSASVGDRVTITCRASENIYSNLAWYQQKPGKAPKLLIYGATNLASGVPSRFSGSGSGTDYTLTISSLQPEDFATYYCQHFWDTPYTFGQGTKVEIK
In assay [4], B4 gave a Bmax of 462000. In addition, the Bmax in assay [5] came out at 1.59. Moreover, in assay [6], the “% no Ab” value came out at 53.3%. In assay [7], this molecule yielded an IC50 of 0.254 nM and a Span of 6670 RFU.

B5: Antibody 2E1_FD3 (antibody, V domains shown)
VH: EVQLVESGGGLVQPGGSLRLSCAVSGYSITSGYYWNWIRQAPGKGLEWVAYISYDGNANYNPSLKNRFTISRDTSKNTFYLQMNSLRAEDTAVYYCAREESTMITTAWFAYWGQGTLVTVSS
VL: DIQMTQSPSSLSASVGDRVTITCRASENIYSNLAWYQQKPGKAPKLLIYGATNLASGVPSRFSGSGSGTDYTLTISSLQPEDFATYYCQHFWDTPYTFGQGTKVEIK
On to B5, for which the Bmax in assay [4] came out at 460000. Also, in assay [5], the Bmax was determined as 1.28. In addition, the “% no Ab” value in assay [6] was found to be 51%. Also, in assay [7], the IC50 came out at 0.232 nM and the Span worked out at 6750 RFU.

B6: Antibody 13H5 (antibody, V domains shown)
VH: EIQLQQSGPELVKPGTSVKVSCKASGSSFTDYNMYWVKQSHGKSLDWIGYIDPYNGRTTYNQKFRGKATLTVDKSSSTAFMHLNSLTSEDSAVYYCARGDYFDYWGQGTSLTVSS
VL: EIQMTQTTSSLSASLGDRVTISCSASQGISNYLNWFQQKPDGTVKLLIYYTSTLHSGVPSRFSGSGSGTDFSLTISNLDPEDFATYYCQQYSNLPYTFGGGTKLEIK
notes: as for B1
In assay [1], B6 yielded a Kd of 1.39 nM. The binding result in assay [3] is listed as “no binding (tested: 5 µg/ml)”; in assay [8], “no binding”.

The values are drawn from patent US20240109962A1 (SPARX BIOSCIENCE, published 2024).
